Assay results as given in the PETadex activity labels (doi:10.3390/molecules28083528).

Experiments:
BHET = experiment: Proxy for plastic degradation [Released monomer concentration (HPLC/LC-MS) (TPA+MHET)]
PET [1] = experiment: Proxy for plastic degradation [Released monomer concentration (HPLC/LC-MS) (MHET+TPA)]; settings: pH 9
PET [2] = experiment: Proxy for plastic degradation [Released monomer concentration (HPLC/LC-MS) (Not Mentioned)]; settings: pH 9

B1: unnamed (protein)
chain: MAVGSMLLSMAAQAQVVVFEETFSTGLGKFTAAGSVVTSSGAARLDGCYGCTDGSITSTAISTVDFTGLRLSFDRVTSGLDSGEAGIAEFSTNGSTYTAVESIRTASGRVTFNLPTSAENQSGLRLRFRINASLSSETYTVDNIRLEGTSGSGGGTTNPFEKGPDPTKTMLEASTGPFTYTTTTVSSTTASGYRQGTIYHCTNVTGPFAAVAVVPGYLASQSSINWWGPRLASHGFVVITIDTNSTSDQPPSRATQLMAALNQLKTFSNTSSHPIYRKVDPNRLGVMGWSMGGGGTLIAARDNPTLKAAIPFAPWNSSTNFSTVSVPTLIIACESDSTAPVNSHASPFYNSLPSTTKKAYLEMNNGSHSCANSGNSNAGLIGKYGVSWMKCFMDNDTRFSPYLCGAPHQADLSLTAIDEYRENCPY
Proxy for plastic degradation (BHET; pH 7, 30 °C): 19.1 µM | Proxy for plastic degradation (BHET; pH 7, 40 °C): 19.5 µM | Proxy for plastic degradation (BHET; pH 7, 50 °C): 20.2 µM | Proxy for plastic degradation (BHET; pH 9, 30 °C): 19.6 µM | Proxy for plastic degradation (BHET; pH 9, 40 °C): 37.1 µM | Proxy for plastic degradation (BHET; pH 9, 50 °C): 55 µM | Proxy for plastic degradation (PET [1]; 30 °C, 1 h): 2.3 µM | Proxy for plastic degradation (PET [1]; 30 °C, 2 h): 3.8 µM | Proxy for plastic degradation (PET [1]; 30 °C, 3 h): 1.6 µM | Proxy for plastic degradation (PET [1]; 30 °C, 4 h): 5.4 µM | Proxy for plastic degradation (PET [1]; 30 °C, 5 h): 4.6 µM | Proxy for plastic degradation (PET [1]; 30 °C, 6 h): 4.9 µM | Proxy for plastic degradation (PET [1]; 40 °C, 1 h): 0.84 µM | Proxy for plastic degradation (PET [1]; 40 °C, 2 h): 3 µM | Proxy for plastic degradation (PET [1]; 40 °C, 3 h): 4.3 µM | Proxy for plastic degradation (PET [1]; 40 °C, 4 h): 8.2 µM | Proxy for plastic degradation (PET [1]; 40 °C, 5 h): 8 µM | Proxy for plastic degradation (PET [1]; 40 °C, 6 h): 9.8 µM | Proxy for plastic degradation (PET [2]; 1 h): 2.3 µM | Proxy for plastic degradation (PET [2]; 2 h): 3.8 µM | Proxy for plastic degradation (PET [2]; 3 h): 1.6 µM | Proxy for plastic degradation (PET [2]; 4 h): 5.4 µM | Proxy for plastic degradation (PET [2]; 5 h): 4.6 µM | Proxy for plastic degradation (PET [2]; 6 h): 4.9 µM

B2: unnamed (protein)
chain: MAVGSMLLSMAAQAQVVVFEETFSTGLGKFTAAGSVVTSSGAARLDGCYGCTDGSITSTAISTVDFTGLRLSFDRVTSGLDSGEAGIAEFSTNGSTYTAVESIRTASGRVTFNLPTSAENQSGLRLRFRINASLSSETYTVDNIRLEGTSGSGGGTTNPFEKGPDPTKTMLEASTGPFTYTTTTVSSTTASGYRQGTIYHPTNVTGPFAAVAVVPGYLASQSSINWWGPRLASHGFVVITIDTNSTSDQPPSRATQLMAALNQLKTFSNTSSHPIYRKVDPNRLGVMGWSMGGGGTLIAARDNPTLKAAIPFAPWNSSTNFSTVSVPTLIIACESDSTAPVNSHASPFYNSLPSTTKKAYLEMCNGSHSCANSGNSNAGLIGKYGVSWMKRFMDNDTRFSPYLCGAPHQACLSLTAIDEYRENCPY
Proxy for plastic degradation (BHET; pH 7, 30 °C): 28.8 µM | Proxy for plastic degradation (BHET; pH 7, 40 °C): 31.2 µM | Proxy for plastic degradation (BHET; pH 7, 50 °C): 37.6 µM | Proxy for plastic degradation (BHET; pH 9, 30 °C): 28.9 µM | Proxy for plastic degradation (BHET; pH 9, 40 °C): 43.2 µM | Proxy for plastic degradation (BHET; pH 9, 50 °C): 66.1 µM | Proxy for plastic degradation (PET [1]; 30 °C, 1 h): 12.1 µM | Proxy for plastic degradation (PET [1]; 30 °C, 2 h): 22.4 µM | Proxy for plastic degradation (PET [1]; 30 °C, 3 h): 33.3 µM | Proxy for plastic degradation (PET [1]; 30 °C, 4 h): 44.1 µM | Proxy for plastic degradation (PET [1]; 30 °C, 5 h): 64.8 µM | Proxy for plastic degradation (PET [1]; 30 °C, 6 h): 72.1 µM | Proxy for plastic degradation (PET [1]; 40 °C, 1 h): 24.3 µM | Proxy for plastic degradation (PET [1]; 40 °C, 2 h): 43.4 µM | Proxy for plastic degradation (PET [1]; 40 °C, 3 h): 59.5 µM | Proxy for plastic degradation (PET [1]; 40 °C, 4 h): 58 µM | Proxy for plastic degradation (PET [1]; 40 °C, 5 h): 101 µM | Proxy for plastic degradation (PET [1]; 40 °C, 6 h): 104 µM

B3: unnamed (protein)
chain: MAVGSMLLSMAAQAQVVVFEETFSTGLGKFTAAGSVVTSSGAARLDGCYGCTDGSITSTAISTVDFTGLRLSFDRVTSGLDSGEAGIAEFSTNGSTYTAVESIRTASGRVTFNLPTSAENQSGLRLRFRINASLSSETYTVDNIRLEGTSGSGGGTTNPFEKGPDPTKTMLEASTGPFTYTTTTVSSTTASGYRQGTIYHPTNVTGPFAAVAVVPGYLASQSSINWWGPRLASHGFVVITIDTNSTSDQPPSRATQLMAALNQLKTFSNTSSHPIYRKVDPNRLGVMGWSMGGGGTLIAARDNPTLKAAIPFAPWNSSTNFSTVSVPTLIIACESDSTAPVNSHASPFYNSLPSTTKKAYLEMNNGSHSCANSGNSNAGLIGKYGVSWMKRFMDNDTRFSPYLCGAPHQADLSLTAIDEYRENCPY
Proxy for plastic degradation (PET [2]; 1 h): 6 µM | Proxy for plastic degradation (PET [2]; 2 h): 8.6 µM | Proxy for plastic degradation (PET [2]; 3 h): 12.8 µM | Proxy for plastic degradation (PET [2]; 4 h): 11.8 µM | Proxy for plastic degradation (PET [2]; 5 h): 14.5 µM | Proxy for plastic degradation (PET [2]; 6 h): 15 µM
